Assay results reported in patent US20220017616A1 (Amgen, published 2022).
Residue numbers refer to the chain shown, from its start.

T1: human TIGIT (human, UniProt Q495A1 22-244)
T1 construct: Cell-surface form; also called huTIGIT
T1 sequence: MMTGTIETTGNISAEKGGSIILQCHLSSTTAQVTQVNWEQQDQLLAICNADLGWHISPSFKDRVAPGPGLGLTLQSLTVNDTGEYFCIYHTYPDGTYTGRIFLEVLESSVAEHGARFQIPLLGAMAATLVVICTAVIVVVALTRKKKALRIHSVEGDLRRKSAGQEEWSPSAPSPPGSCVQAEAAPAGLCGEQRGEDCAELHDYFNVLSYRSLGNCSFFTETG

T2: biotinylated human CD112R-Fc (human, UniProt Q6DKI7 41-171, limits assumed, biotinylated)
T2 construct: also called CD112R receptor (on streptavidin beads)
T2 sequence: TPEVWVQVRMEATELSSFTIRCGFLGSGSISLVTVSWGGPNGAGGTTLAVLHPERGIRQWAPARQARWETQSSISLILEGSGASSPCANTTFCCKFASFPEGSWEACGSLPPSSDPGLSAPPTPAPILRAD

T3: huTIGIT (PL44403) (human, UniProt Q495A1 22-141)
T3 construct: Soluble protein; also called Human TIGIT (Octet analyte, mono-Fc tag)
T3 sequence: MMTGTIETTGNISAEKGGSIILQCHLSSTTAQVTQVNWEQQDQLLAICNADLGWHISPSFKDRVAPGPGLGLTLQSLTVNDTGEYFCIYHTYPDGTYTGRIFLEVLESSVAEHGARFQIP

T4: cynomolgus monkey CD112R (cynomolgus monkey)
T4 construct: also called cyno CD112R
T4 chain: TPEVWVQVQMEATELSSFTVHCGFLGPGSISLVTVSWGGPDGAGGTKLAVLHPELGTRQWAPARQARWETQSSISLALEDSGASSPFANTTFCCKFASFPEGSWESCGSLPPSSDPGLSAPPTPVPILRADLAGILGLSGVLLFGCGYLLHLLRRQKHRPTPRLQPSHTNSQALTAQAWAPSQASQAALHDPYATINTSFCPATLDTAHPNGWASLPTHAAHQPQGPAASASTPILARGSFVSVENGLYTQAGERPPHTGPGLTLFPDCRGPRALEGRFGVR

T5: human CD112R (human, UniProt Q6DKI7 41-326)
T5 construct: also called huCD112R; PVRIG
T5 sequence: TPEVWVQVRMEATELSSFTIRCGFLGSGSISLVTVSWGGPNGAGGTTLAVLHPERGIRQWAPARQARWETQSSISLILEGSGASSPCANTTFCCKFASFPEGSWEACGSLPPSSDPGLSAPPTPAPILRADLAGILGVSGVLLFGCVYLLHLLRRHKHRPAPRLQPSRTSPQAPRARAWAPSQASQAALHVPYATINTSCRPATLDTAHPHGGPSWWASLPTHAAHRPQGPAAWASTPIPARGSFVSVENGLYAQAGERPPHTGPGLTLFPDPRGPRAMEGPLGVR

B1: 39D2 (antibody, V domains shown)
VH: QVQLVQSGAEVKKPGASVKVSCKASGYTFTGYYIHWVRQAPGQGLEWMGWISPTSGATGYAQNFQGRVTMTRDTSITTAYMELSRLRSDDTAVYYCARDSNSVLYYYGMDVWGQGTTVTVSS
VL: DIEMTQAPSSLSASVGDRVTITCRASQTIRRYLNWYQQKPGKAPKLLIYAASSLQNGVPSRFSGSVSGTDFTLTISSLQPEDFATYYCQQSYSTPLTFGGGTKVGIRR
notes: Fully human XenoMouse antibody, tested as hybridoma supernatant or purified mAb
B2: 4G10 (antibody, V domains shown)
VH: QVQLQESGPGLVNPSQTLSLTCIVSGGSIRSGDYYWSWIRQHPGKGLEWIGYIYYSGGTYYNPSLKSRVIISVDTTKNQFSLKLSSMTAADTAVYYCARGSIAARSGYFYFSGLDVWGQGPTVTVSS
VL: EIVLTQTPLSLSVTPGQPASISCKSSQSLLPSDGKTYLSWYLQKPGLPPQVLIYEVSNRFSGVPDRFSGSGSGTDFTLKISRVEAEDVGVYYCMQSIQLPLTFGGGTKVEIKR
notes: as for B1
B3: 55G7 (antibody, V domains shown)
VH: QVQLVESGGGVVQPGRSLRLSCAASGFTFSSYGMHWVRQAPGKGLEWVALIWFDESNIYYADSVKGRFTISRDNSKNTLYLQMNSLRAEDTAVYFCARGYDLLTGYYNFDFWGLGTLVTVSA
VL: QAGLTQPPSVSKGLRQTATLTCTGNTNNVGNRGAAWLQQHQGHPPKLLSYRNNNRPSGISERLSASRSGNTASLTITGLQPEDEADYYCSAWDSSLSAWVFGGGTKLTVLG
notes: as for B1
B4: 58A7 (antibody, V domains shown)
VH: QVQLQESGPGLVKPSQTLSLTCTVSGGSISSGGYYWNWIRQHPGKGLEWIGYIYYSGSTFYNPSLKSRVIISVDTSKNQFSLKLSSVTAADTAVYYCARAPRYNWNYGWFDPWGQGTLVTVSS
VL: EIVLTQSPGTLSLSPGERATLSCRASQNVSSTYLAWYQQKPGQAPRLLFYGASSRATGIPDRFSRSGSGTDFTLTISRLEPEDFAVYYCQQYDVSPWTFGQGTKVEIK
notes: Tested as hybridoma supernatant or purified mAb; also called 48B7
B5: 66H9 (antibody, V domains shown)
VH: QVQLQESGPGLVKPSQTLSLTCTVSGGSISSVYFYWNWIRQHPGKGLEWIGYIYYSGGTYYNPSLRSRVTISVDTSKNQFSLKLNSVTAADTAVYYCARGSIAAGGGYFYYNDMDVWGQGTTVTVSS
VL: EIVLTQSPDFQSVTPKEKVAITCRASQSIGSSLHWYQQKPDQSPKPLIKYVSQSFSGVPSRFSGSGSGTDFTLTINSLEAEDAATYYCHQSSSLPLTFGGGTKVEIKR
notes: as for B1
B6: 31B3 (antibody, V domains shown)
VH: QVQLVESGGGVVQPGRSLRLSCAASGFTFSYYGMHWVRQAPGKGLEWVALISYDGNNKYYVDSVRGRFTISRDNSKNTLSLQMNSLRAEDTAVYYCAREIFGESYYYGMDVWGQGTTVTVSS
VL: EIVMTQSPATLSVSPGERATLSCRASQSISRNLAWYQQKPGQAPRLLIYGASIRATVIPARFSGSGSGTEFTLTISSLQSEDFAIYYCQQYNNWMCSFGQGTKLEIK
notes: Fully human XenoMouse antibody, tested as hybridoma supernatant
B7: 1E1 (antibody, V domains shown)
VH: QVQLVQSGAEVKKPGASVKVSCQASGYTFTDYYIYWVRQAPGQGLEWMGWINPNSGGTNYAQKFQGRVTMTRDTSISTAYIELSRLRSDDTAVYYCAREDNFNGMDVWGQGTTVTVSS
VL: DIQMTQSPSSLSASVGDRVTITCRASQGIRNDLGWYQQKPGKAPKRLIYAASSLQSGVPSRFSGSGSGTEFTLTISSLQPEDFATYYCLQLNSYPLTFGGGTKVEIKR
notes: Fully human XenoMouse antibody, tested as hybridoma supernatant or purified mAb; also called 18C10
B8: 24F1 (antibody, V domains shown)
VH: EVQLVESGGGLVQPGGSLRLSCAASGFTFSRDDMHWVRQATGKGLEWVAGIDNAGDTYYPGSVKGRFTISRENAKNSLYLQMNSLRAGDTAIYYCAREGQWPYGMDVWGQGTTVTVSS
VL: B7 VL with A50S, P59S, L91S
notes: as for B6
B9: 29E10 (antibody, V domains shown)
VH: EVQLVESGGGLVQPGGSLRLSCAASGFTFRNYDMHWVRQVPGKGLEWVSDIGNSGETYYLGSVKGRFTISRENAKNSLYLQMNSLRAGDTAVYYCVREEFGYGMDVWGQGTTVTVSS
VL: B7 VL with L91H
notes: as for B6
B10: 11E4 (antibody, V domains shown)
VH: QVQLQESGPGLVKPSQTLSLTCTVSGGSISSGGYYWSWIRQHPGKGLEWIGYIYYSGSTSYNPSLKSRVTISVDTSKNQFSLKLSSVTAADTAVYYCARDLDYDILTGYPRWDYGMDVWGQGTTVTVSS
VL: EIVMTQSPATLSVSPGERATLSCRASQSVSNNLAWYQQKPGQAPRLLIYSESTRATGIPDRFSGSGSGTEFTLTISSLQSEDFAVYYCQQHNNWPRTFGQGTKVEIKR
notes: as for B6
B11: 27G12 (antibody, V domains shown)
VH: QVQLVQSGGEVKKPGASVKVSCKASGFTFTSYDINWVRQATGQGLEWMGWMNHYSGDSDYAQKLQGRVIITRNTSITTAYMELSSLRSEDTAVYYCGRERFPFGMDVWGQGTTVTVSS
VL: DIQMTHSPSSLSASIGDRVTITCRASQGIRNELGWYQKKPGKAPKRLIYSASSLQSGVPSRFSGSGSGTEFTLTISSLQPEDFATYYCLQHNTYPLTFGGGTKVEIK
notes: as for B6

target: T1, human TIGIT; assay: flow cytometry, 1 µg/mL on activated primary human T cells, fold over isotype control
Procedure: (§1) The binding of hybridoma supernatants to TIGIT expressed by primary human and cynomolgus monkey cells were tested by flow cytometry. For human primary cell binding assay, purified human T cells (Biological Specialty Corp.) were thawed and suspended at a concentration of 2.5×10⁶ cells/mL. […] After 72 hours, cells were removed, washed and suspended at a concentration of 0.5×10⁶ cells/mL with 10 ng/mL of IL-2 (Pepro Tech). Cells were then incubated for another 48 to 72 hours at 37° C./5% CO₂. For cynomolgus primary cell binding assay, cynomolgus PBMCs (SNBL) were thawed and suspended in a concentration between 4×10⁶ and 5×10⁶ cells/mL. […] After 72 hours, cells were removed, washed and suspended at a concentration of 0.5×10E6 cells/mL with 20 ng/mL of IL-2 (Pepro Tech). Cells were then incubated for another 48 to 72 hours at 37° C./5% CO₂. After the final incubation, cells were prepared for flow cytometry by incubation with normalized hybridoma supernatants, positive control antibodies and isotype control antibodies at 1 μg/mL final concentration. […] Cells were then run on BD FACSCanto II flow cytometer to detect anti-TIGIT antibody binding.

FACS Geomean Fold	Binder
13.7 fold	B1
13.5 fold	B2
4.5 fold	B3
4.5 fold	B4
4.1 fold	B5

target: T2, biotinylated human CD112R-Fc; assay: flow cytometry on beads, supernatant at 5 µg/mL, competitor Alexa 647 CD112-huFc at 370 ng/mL
Procedure: Biotinylated human CD112R-Fc was captured on Streptavidin polystyrene beads (Spherotech, Cat. No. SVP-60-5) in FACS buffer and incubated for 30 minutes at room temperature. Beads were washed twice with FACS buffer, centrifuged to pellet the beads, supernatant removed and resuspended in FACS buffer to remove unbound protein. Biotinylated human CD112R coated beads were added to a 96-well plate. Hybridoma supernatant samples were added such that 5 μg/mL final, beads were resuspended and incubated for 1 hour at room temperature. […] Beads were washed once with FACS buffer, centrifuged to pellet the beads, supernatant removed and resuspended in FACS buffer to remove unbound ligand. Samples were then resuspended in FACS buffer and read on BD Accuri™ Flow Cytometer with an Intellicyt HyperCyt autosampler.

% of CD112 ligand prevented from binding	Binder
≥ 90%	B6
≥ 90%	B7
≥ 90%	B8
≥ 90%	B9
≥ 90%	B10
≥ 90%	B11

target: T1, human TIGIT; assay: cell-based or functional assay

Potency [nM], Jurkat human TIGIT/IL-2-luciferase RGA, n = 1	Potency [nM], Jurkat human TIGIT/IL-2-luciferase RGA, n = 2	Binder
2 nM	2.8 nM	B1
6.7 nM	15 nM	B2
4.4 nM	14.4 nM	B3
7.9 nM	2.9 nM	B4
3.4 nM	5.8 nM	B5

target: T1, human TIGIT; assay: flow cytometry on CHO-S cells expressing human TIGIT, competitor huCD155-Fc-Alexa 647, at 1.7 µg/mL
Procedure: (§2) TIGIT-binding hybridoma supernatants were then tested for their ability to block TIGIT from binding ligand. […] The 7-AAD cell viability stain was then added and the cells incubated for a further 15 minutes at 4° C., washed twice and resuspended in FACS buffer. Samples were analyzed using a BD Accuri™ Flow Cytometer and an Intellicyt HyperCyt autoSampler.

% inhibition	Binder
100%	B1
100%	B2
99%	B3
99%	B4
98%	B5

target: T6, cynoTIGIT (PL40461) (cynomolgus monkey); assay: Octet, antibody on anti-huIgG Fc capture tips, cynoTIGIT as analyte
T6 construct: Soluble protein; also called Cyno TIGIT (Octet analyte)
T6 sequence (chain, as listed by the source limits assumed): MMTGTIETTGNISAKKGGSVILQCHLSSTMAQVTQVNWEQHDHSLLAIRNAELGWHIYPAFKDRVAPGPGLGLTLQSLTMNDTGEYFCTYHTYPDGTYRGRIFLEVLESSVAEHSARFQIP
Procedure: (§3) In the case of cynoTIGIT, association was monitored for 5 min and dissociation for 5 min. […] The limit of detection of dissociation is 4e-5 based on a minimum of 5% dissociation over 20 minutes.

Kd	Binder
17 nM	B3
38 nM	B4
18 nM	B5

target: T3, huTIGIT (PL44403); assay: Octet, antibody on anti-huIgG Fc capture tips, huTIGIT as analyte
Procedure: as §3

Kd	Binder
< 0.1 nM	B1
< 0.2 nM	B2
< 0.1 nM	B3
< 0.1 nM	B4
< 0.1 nM	B5

Target: T4, cynomolgus monkey CD112R
Assay: flow cytometry, titration on activated cyno PBMCs
Procedure: (§4) Briefly, cultured human T cells and cyno PBMCs were incubated with lead panel starting at 3 μg/mL for human or 5 μg/mL for cyno and titrated 1 in 3 for the lowest concentration of 0.001 μg/mL for human and 0.002 μg/mL for cyno. […] For analysis, FCS Express was used to obtain Geo Means and Screener was used to determine fold over Isotype control, titration curves and EC50 values.

EC50	Binder
0.898 µg/mL	B6
0.0087 µg/mL	B7
0.0334 µg/mL	B8
0.0322 µg/mL	B9
0.174 µg/mL	B11

target: T7, cynomolgus TIGIT (cynomolgus monkey); assay: flow cytometry, 1 µg/mL on activated primary cyno PBMCs, fold over isotype control
T7 construct: Cell-surface form; also called cyno TIGIT
T7 sequence (chain, as listed by the source): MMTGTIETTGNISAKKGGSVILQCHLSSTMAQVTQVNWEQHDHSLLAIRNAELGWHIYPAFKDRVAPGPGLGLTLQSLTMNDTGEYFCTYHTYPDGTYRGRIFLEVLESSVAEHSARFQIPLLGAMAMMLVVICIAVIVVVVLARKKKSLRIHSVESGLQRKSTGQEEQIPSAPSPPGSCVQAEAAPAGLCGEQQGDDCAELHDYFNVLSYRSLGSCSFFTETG
Procedure: as §1

FACS Geomean Fold	Binder
12.3 fold	B3
7.2 fold	B4
4 fold	B5

target: T1, human TIGIT; assay: flow cytometry on CHO-S cells expressing human TIGIT, competitor CD112-Fc-Alexa 647, at 1 ug/mL
Procedure: as §2

% inhibition	Binder
100%	B1
91%	B2
86%	B3
88%	B4
85%	B5

target: T1, human TIGIT; assay: cell-based or functional assay; remark: another data set of the same source

activity in the primary CD8 memory T-cell assay (IFN-γ release, CHO-K1-CD155+ cells)	Binder
380 pM	B1

target: T5, human CD112R; assay: flow cytometry, titration on activated primary human T cells
Procedure: as §4

EC50	Binder
0.127 µg/mL	B6
0.02 µg/mL	B7
0.034 µg/mL	B8
0.033 µg/mL	B9
0.089 µg/mL	B11
